These results are taken from patent publication US6541623.

This experiment has as its target Interleukin-1 receptor on human fibroblasts (NHDF, normal human dermal fibroblasts) (human). Briefly: cell-based or functional assay.

Chain of Interleukin-1 receptor on human fibroblasts (NHDF, normal human dermal fibroblasts) (human) (P14778 18-569): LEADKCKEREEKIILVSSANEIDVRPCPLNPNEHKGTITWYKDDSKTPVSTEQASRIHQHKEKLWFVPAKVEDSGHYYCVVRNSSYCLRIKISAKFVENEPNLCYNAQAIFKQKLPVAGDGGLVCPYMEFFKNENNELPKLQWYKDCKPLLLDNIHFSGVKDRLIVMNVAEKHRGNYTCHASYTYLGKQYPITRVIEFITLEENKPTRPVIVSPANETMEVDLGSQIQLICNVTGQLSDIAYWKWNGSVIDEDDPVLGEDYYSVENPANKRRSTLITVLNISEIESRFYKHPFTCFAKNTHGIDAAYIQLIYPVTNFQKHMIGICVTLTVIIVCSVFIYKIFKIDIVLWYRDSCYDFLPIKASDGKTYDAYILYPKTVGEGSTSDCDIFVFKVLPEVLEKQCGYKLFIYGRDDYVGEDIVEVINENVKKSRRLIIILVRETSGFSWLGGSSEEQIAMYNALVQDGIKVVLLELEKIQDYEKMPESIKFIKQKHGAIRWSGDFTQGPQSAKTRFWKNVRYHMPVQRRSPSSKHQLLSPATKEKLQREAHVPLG

“IL-1 Hy1 Receptor Antagonist, non-tagged / preparation not specified (from UniProt Q9UBH0 1-155) (ligand)” showed an inhibition of IL-1β stimulated PGE2 production in CCD 1098 human fibroblast cells (PGE2 ELISA) of 40 to 60 % inhibition.
